In patent publication US8540999B2, “Allergenic proteins and peptides from Japanese cedar pollen” (Merck Patent GmbH, priority 1991, dated 2013):

What was measured:
IgE antibodies = conditions: Sakaguchi (1990); cited from earlier work
human basophil = assay: Histamine release assay; format: cell-based; conditions: one Japanese cedar pollen allergic patient, FIG. 11
Description: To determine whether a peptide which binds IgE results in the release of mediators, a histamine release assay can be performed using standard reagents and protocols obtained for example, from Amac, Inc. (Westbrook, Me.). Briefly, a buffered solution of a peptide to be tested is combined with an equal volume of whole heparinized blood from an allergic subject. After mixing and incubation, the cells are pelleted and the supernatants are processed an analyzed using a radioimmunoassay to determine the amount of histamine released.
A histamine release assay was performed on one Japanese cedar pollen allergic patient using Japanese cedar pollen SPE, purified native Cry j I and rCry j I as the added antigens. This assay is a measure of IgE reactivity through human basophil mediator release. […] Two possible explanations for this release by the rCry j I are: 1) specific reactivity with a very low proportion of the anti-Cry j I IgE capable of recognizing the recombinant form of Cry j I, or 2) non-specific release caused by low abundance of bacterial contaminants observed only at the highest antigen concentration. […] In addition, the data shown are from single data points at each protein concentration.

Cry j I reactive T cells = assay: T cell proliferation assay, Cry j I primed T cell lines (Example 6); format: cell-based, human
Description: Viable cells were purified by LSM centrifugation and cultured in complete medium supplemented with 5 units recombinant human IL-2/ml and 5 units recombinant human IL-4/ml for up to three weeks until the cells no longer responded to lymphokines and were considered “rested”. The ability of the T cells to proliferate to selected peptides, recombinant Cry j I (rCry j I), purified native Cry j I, or recombinant Amb aI.1 (rAmb aI.1) or a positive control, phyto-hemaglutinin (PHA) was then assessed. For assay, 2×10^4 rested cells were restimulated in the presence of 2×10^4 autologous Epstein-Barr virus (EBV)-transformed B cells (prepared as described below) (gamma-irradiated with 25,000 RADS) with 2-50 μg/ml of selected peptides, Cry j I, purified native Cry j I or rAmb a I.1 or PHA, in a volume of 200 μl complete medium in duplicate or triplicate wells in 96-well round bottom plates for 2-4 days. […] Each well then received 1 μCi tritiated thymidine for 16-20 hours. The counts incorporated were collected onto glass fiber filter mats and processed for liquid scintillation counting. […] The titrations were used to optimize the dose of peptides in T cell assays. The maximum response in a titration of each peptide is expressed as the stimulation index (S.I.). The S.I. is the counts per minute (CPM) incorporated by cells in response to peptide, divided by the CPM incorporated by cells in medium only.
The above procedure was followed with a number of other patients. […] The bars represent the positivity index. Above each bar is the percent of positive responses with an S.I. of at least two to the peptide or protein in the group of patients tested. In parenthesis above each bar are the mean stimulation indices for each peptide or protein for the group of patients tested.
Autologous EBV-transformed cell lines were y-irradiated with 25,000 Rad and used as antigen presenting cells in secondary proliferation assays and secondary bulk stimulations. These EBV-transformed cell lines were made by incubating 5×10^6 PBL with 1 ml of B-59/8 Marmoset cell line (ATCC CRL1612, American Type Culture Collection, Rockville, Md.) conditioned medium in the presence of 1 μg/ml phorbol 12-myristate 13-acetate (PMA) at 37° C. for 60 minutes in 12×75 mm polypropylene round-bottom Falcon snap cap tubes (Becton Dickinson Labware, Lincoln Park, N.J.). These cells were then diluted to 1.25×10^6 cells/ml in RPMI-1640 as described above except supplemented with 10% heat-inactivated fetal bovine serum and cultured in 200 μl aliquots in flat bottom culture plates until visible colonies were detected. They were then transferred to larger wells until the cell lines were established.

allergic patient IgE [1] = assay: Competition ELISA, wells coated with Japanese cedar pollen SPE; format: binding, human
Description: In the competition assay, ELISA wells were coated with Japanese cedar pollen SPE and then allergic patient IgE binding was measured in the presence of competing purified native Cry j I in solution. The source of allergic IgE in these assays was either the pool of plasma from 15 patients (denoted PHP) or seven individual plasma samples from patients with a Japanese cedar MAST score of 2.5 or greater. The competition assay using the pooled human plasma samples compares the competitive binding capacity of purified native Cry j I to Japanese cedar pollen SPE and an irrelevant allergen source, rye grass SPE. […] This assay was repeated with individual patients as a measure of the range of the IgE response within the allergic population.

allergic patient IgE [2] = assay: Allergic sera titration of purified subfractions of Cry j I (FIG. 3); format: binding, human; conditions: pool of fifteen allergic patient plasma
Text: In summary, three Cry j I isoforms of different molecular weight were purified from pollen extract. The molecular weights estimated by SDS-PAGE ranged from 40-35 kD under both reducing and non-reducing conditions. The isoelectric point of these isoforms is approximately 9.5-8.6, with an average pI of 9.0. The N-terminal 20 amino acid sequence was the same in these 3 bands and was identical to previously published Cry j I sequence (Taniai et al, supra). The 3 isoforms are all recognized by monoclonal antibody CBF2 as shown in the allergic sera titration of different purified subfractions of Cry j I using a pool of fifteen allergic patient plasma. […] The difference in molecular weight and isoelectric point in these isoforms might in part be due to post-translational modification, e.g. glycosylation, phosphorylation or lipid content. The possibility that these different isoforms might be due to protease degradation cannot be ruled out at present even though it is unlikely due to the fact that four different protease inhibitors were used during extraction and purification. The other possibility could be due to polymorphism in the gene or alternate splicing in the mRNA though only one major form of Cry j I protein has been detected in cDNA cloning studies (see Example 4).

competition for IgE binding to coated Japanese cedar pollen SPE (allergic patient IgE [1]; pooled human plasma (PHP), 15 patients, FIG. 6): competes very well
competition for IgE binding to coated Japanese cedar pollen SPE (allergic patient IgE [1]; seven individual patients, FIG. 7): could be competed
B1: purified native Cry j I: major allergen of Japanese cedar pollen, biochemically purified in the native form (protein)
chain: DNPIDSCWRGDSNWAQNRMKLADCAVGFGSSTMGGKGGDLYTVTNSDDDPVNPAPGTLRYGATRDRPLWIIFSGNMNIKLKMPMYIAGYKTFDGRGAQVYIGNGGPCVFIKRVSNVIIHGLYLYGCSTSVLGNVLINESFGVEPVHPQDGDALTLRTATNIWIDHNSFSNSSDGLVDVTLTSTGVTISNNLFFNHHKVMLLGHDDAYSDDKSMKVTVAFNQFGPNCGQRMPRARYGLVHVANNNYDPWTIYAIGGSSNPTILSEGNSFTAPNESYKKQVTIRIGCKTSSSCSNWVWQSTQDVFYNGAYFVSSGKYEGGNIYTKKEAFNVENGNATPQLTKNAGVLTCSLSKRC
allergic patients with IgE that only reacted with this allergen (IgE antibodies): 29%
histamine release (human basophil): strong histamine release
T cell line response (Cry j I reactive T cells; panel of twenty-five patients, FIG. 14): All twenty-five T cell lines responded
T cell proliferative response (Cry j I reactive T cells; patient #999, FIG. 12): responds well
IgE binding of purified isoforms (allergic patient IgE [2]): bind allergic patient IgE
